This is an account of results in patent EP4257134A2 (Immunomedics, Inc., dated 2023).

The target in test [1] is CD74 (invariant chain, Ii) (human) (UniProt P04233). The test is described as follows: cell binding to antigen-positive cells (cell line not given).
The target of test [2] is CEACAM6 (human) (UniProt P40199). The test is described as follows: flow cytometry; Hep-G2 cells.
For test [3] the target is unchanged. The test is described as follows: flow cytometry, surface; NCI-N87 cells (staining antibody not given).
Test [4] shares this target. The experiment in a line: flow cytometry, surface; HuH-7 cells (staining antibody not given).
The target in test [5] is CD74 (invariant chain, Ii) (human) (UniProt P04233). The test is described as follows: flow cytometry, surface only; Capan-1 cells (background 12, GAH-FITC only).
Test [6] has the same target. The experiment in a line: flow cytometry, surface only; HuH-7 cells.
For test [7] the target is unchanged. The experiment in a line: flow cytometry, surface and cytoplasmic (permeabilized cells); HuH-7.
The target is the same in test [8]. The experiment in a line: flow cytometry, surface only; A-375 cells.
Test [9] has the same target. The experiment in a line: flow cytometry, surface and cytoplasmic (permeabilized cells); Hep-G2 (background 5).
For test [10] the target is unchanged. The test is described as follows: flow cytometry, surface only; HuH-7 cells (background 5, GAH-FITC only).
Test [11] shares this target. The experiment in a line: flow cytometry, surface only; Hep-G2 cells (background 6, GAH-FITC only).
For test [12] the target is unchanged. The experiment in a line: flow cytometry, surface only; Raji cells.
The target is the same in test [13]. The experiment in a line: flow cytometry, surface only; Raji cells (background 3, GAH-FITC only).
Test [14] shares this target. The experiment in a line: flow cytometry, surface only; Capan-1 cells.
Test [15] shares this target. The experiment in a line: flow cytometry, surface only; A-375 cells (background 3, GAH-FITC only).
Test [16] has the same target. The experiment in a line: flow cytometry, surface and cytoplasmic (permeabilized cells); NCI-N87.
The target is the same in test [17]. The test is described as follows: flow cytometry, surface and cytoplasmic (permeabilized cells); HuH-7 (background 4).
Test [18] shares this target. The test is described as follows: flow cytometry, surface and cytoplasmic (permeabilized cells); Hep-G2.
Test [19] shares this target. The experiment in a line: flow cytometry, surface only; NCI-N87 cells (background 4, GAH-FITC only).
Test [20] has the same target. The experiment in a line: flow cytometry, surface and cytoplasmic (permeabilized cells); NCI-N87 (background 6).
For test [21] the target is unchanged. The experiment in a line: flow cytometry, surface only; Hs746T cells.
The target is the same in test [22]. The test is described as follows: flow cytometry, surface and cytoplasmic (permeabilized cells); Capan-1 (background 5).
The target is the same in test [23]. The test is described as follows: flow cytometry, surface and cytoplasmic (permeabilized cells); A-375.
Test [24] has the same target. The experiment in a line: flow cytometry, surface only; Hs746T cells (background 8, GAH-FITC only).
For test [25] the target is unchanged. The experiment in a line: flow cytometry, surface only; Hep-G2 cells.
For test [26] the target is unchanged. The test is described as follows: flow cytometry, surface and cytoplasmic (permeabilized cells); Hs746T (background 5).
Test [27] shares this target. The experiment in a line: flow cytometry, surface and cytoplasmic (permeabilized cells); Capan-1.
The target is the same in test [28]. The experiment in a line: flow cytometry, surface and cytoplasmic (permeabilized cells); Hs746T.
Test [29] shares this target. The test is described as follows: flow cytometry, surface and cytoplasmic (permeabilized cells); A-375 (background 6).
Test [30] shares this target. The test is described as follows: flow cytometry, surface and cytoplasmic (permeabilized cells); Raji.
Test [31] shares this target. The test is described as follows: flow cytometry, surface only; NCI-N87 cells.
For test [32] the target is unchanged. The experiment in a line: flow cytometry, surface and cytoplasmic (permeabilized cells); Raji (background 5).
Test [33] deals with CD20 (human) (UniProt P11836). The experiment in a line: flow cytometry with the unconjugated specific antibody, FITC goat anti-human IgG; Raji cells (background 6.8).
Test [34] addresses CD20 (human) (UniProt P11836). The experiment in a line: flow cytometry with the unconjugated specific antibody, FITC goat anti-human IgG; MN-60 cells (background 5.8).
Test [35] deals with CD20 (human) (UniProt P11836). The experiment in a line: flow cytometry with the unconjugated specific antibody, FITC goat anti-human IgG; WSU-FSCCL cells (background 4.9).
In test [36] the target is CD20 (human) (UniProt P11836). The test is described as follows: flow cytometry with the unconjugated specific antibody, FITC goat anti-human IgG; REH cells (background 4.1).
Test [37] concerns the target CD20 (human) (UniProt P11836). The experiment in a line: flow cytometry with the unconjugated specific antibody, FITC goat anti-human IgG; Jeko-1 cells (background 6.5).
Test [38] concerns the target CD20 (human) (UniProt P11836). The experiment in a line: flow cytometry with the unconjugated specific antibody, FITC goat anti-human IgG; 697 cells (background 4.2).
Test [39] concerns the target CD20 (human) (UniProt P11836). The test is described as follows: flow cytometry with the unconjugated specific antibody, FITC goat anti-human IgG; RS4;11 cells (background 4.1).
The target in test [40] is CD20 (human) (UniProt P11836). The test is described as follows: flow cytometry with the unconjugated specific antibody, FITC goat anti-human IgG; Ramos cells (background 4.1).
Test [41] has as its target CD20 (human) (UniProt P11836). The test is described as follows: flow cytometry with the unconjugated specific antibody, FITC goat anti-human IgG; Daudi cells (background 5.9).
Test [42] deals with Human trophoblast cell-surface antigen (Trop-2) (human) (UniProt P09758). The test is described as follows: cell binding assay on Trop-2-expressing cells.
The target of test [43] is CD22 (human) (UniProt P20273). The experiment in a line: flow cytometry with the unconjugated specific antibody, FITC goat anti-human IgG; Raji cells (background 6.8).
For test [44], the target named is CD22 (human) (UniProt P20273). The test is described as follows: flow cytometry with the unconjugated specific antibody, FITC goat anti-human IgG; MN-60 cells (background 5.8).
Test [45] deals with CD22 (human) (UniProt P20273). The test is described as follows: flow cytometry with the unconjugated specific antibody, FITC goat anti-human IgG; WSU-FSCCL cells (background 4.9).
For test [46], the target named is CD22 (human) (UniProt P20273). The experiment in a line: flow cytometry with the unconjugated specific antibody, FITC goat anti-human IgG; REH cells (background 4.1).
Test [47] addresses CD22 (human) (UniProt P20273). The experiment in a line: flow cytometry with the unconjugated specific antibody, FITC goat anti-human IgG; Jeko-1 cells (background 6.5).
The target in test [48] is CD22 (human) (UniProt P20273). The experiment in a line: flow cytometry with the unconjugated specific antibody, FITC goat anti-human IgG; 697 cells (background 4.2).
In test [49] the target is CD22 (human) (UniProt P20273). The test is described as follows: flow cytometry with the unconjugated specific antibody, FITC goat anti-human IgG; RS4;11 cells (background 4.1).
In test [50] the target is CD22 (human) (UniProt P20273). The experiment in a line: flow cytometry with the unconjugated specific antibody, FITC goat anti-human IgG; Ramos cells (background 4.1).
The target of test [51] is CD22 (human) (UniProt P20273). The test is described as follows: flow cytometry with the unconjugated specific antibody, FITC goat anti-human IgG; Daudi cells (background 5.9).
The target in test [52] is T1, Human trophoblast cell-surface antigen (Trop-2) (human, UniProt P09758 27-323).
T1 sequence (looked up): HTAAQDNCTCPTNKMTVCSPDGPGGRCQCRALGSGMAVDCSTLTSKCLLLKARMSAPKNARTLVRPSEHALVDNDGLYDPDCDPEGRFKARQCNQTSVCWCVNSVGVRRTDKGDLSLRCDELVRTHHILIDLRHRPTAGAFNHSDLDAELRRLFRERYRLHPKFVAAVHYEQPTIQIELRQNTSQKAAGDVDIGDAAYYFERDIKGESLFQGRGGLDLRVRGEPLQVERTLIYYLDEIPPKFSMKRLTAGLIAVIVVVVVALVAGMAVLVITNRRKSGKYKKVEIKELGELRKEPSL
The experiment in a line: cell-based or functional assay.

Chain of CEACAM6 (human) (P40199 35-320): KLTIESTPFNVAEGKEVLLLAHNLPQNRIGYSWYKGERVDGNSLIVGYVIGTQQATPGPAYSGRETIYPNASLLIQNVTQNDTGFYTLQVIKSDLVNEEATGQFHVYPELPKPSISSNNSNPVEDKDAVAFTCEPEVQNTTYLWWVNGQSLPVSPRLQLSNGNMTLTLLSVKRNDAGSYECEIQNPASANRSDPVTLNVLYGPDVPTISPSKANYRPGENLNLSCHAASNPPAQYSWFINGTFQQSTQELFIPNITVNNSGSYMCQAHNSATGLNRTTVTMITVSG
Chain of CD74 (invariant chain, Ii) (human) (P04233 whole entry, change not shown): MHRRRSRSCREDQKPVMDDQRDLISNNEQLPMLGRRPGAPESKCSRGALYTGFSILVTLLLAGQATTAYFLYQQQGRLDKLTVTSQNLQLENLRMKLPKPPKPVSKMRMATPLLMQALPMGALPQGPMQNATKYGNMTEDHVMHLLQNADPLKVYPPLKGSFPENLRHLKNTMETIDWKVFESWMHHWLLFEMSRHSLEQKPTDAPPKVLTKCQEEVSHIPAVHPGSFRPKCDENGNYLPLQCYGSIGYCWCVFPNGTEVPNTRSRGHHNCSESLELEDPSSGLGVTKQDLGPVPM
Chain of CD20 (human) (P11836 whole entry): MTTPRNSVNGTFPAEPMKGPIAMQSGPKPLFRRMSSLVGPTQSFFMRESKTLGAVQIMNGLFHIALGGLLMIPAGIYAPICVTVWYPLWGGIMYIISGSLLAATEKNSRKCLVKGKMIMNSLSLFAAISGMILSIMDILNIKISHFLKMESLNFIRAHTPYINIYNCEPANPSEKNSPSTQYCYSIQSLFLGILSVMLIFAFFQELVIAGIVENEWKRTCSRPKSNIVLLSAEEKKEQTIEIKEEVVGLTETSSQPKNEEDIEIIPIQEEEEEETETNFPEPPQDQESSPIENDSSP

Milatuzumab-CL2E-SN-38 (antibody) returned a Kd in test [1] of 0.8 nM.

Turning to “hMN-15 (humanized anti-CEACAM6 IgG1, unconjugated) (antibody)”, the MFI in the test with CEACAM6 (human) [2] was 175; with CEACAM6 (human) [3], 1120; in the test with CEACAM6 (human) [4], 81.

“Milatuzumab (hLL1, humanized anti-CD74 IgG1, unconjugated) (antibody)”: the MFI in [5] is 22; in [9] it was 156; in test [10], 8; in test [11], 9; in [13], 59; in [15] it was 16. The MFI was 114 in test [17]; 5 in [19]; 220 in [20]; 248 in [22]; 17 in test [24]; 144 in test [26]. Also, the MFI is 185 in [29] and 143 in [32]. Further, the MFI Ratio hLL1:bkgd was 1.6 in test [6]; 28.5 in test [7]; 5.3 in test [8]; 19.6 in test [12]; 1.8 in test [14]; 36.7 in test [16]. For the same molecule, the MFI Ratio hLL1:bkgd in [18] was found to be 31.2; in test [21], 2.1; in test [23], 30.8; in test [25], 1.5; in test [27], 49.6; in test [28], 28.8. Also, the MFI Ratio hLL1:bkgd turned out to be 28.6 in [30] and 1.3 in test [31]. Moreover, the Kd in test [1] was 0.77 nM.

The molecule Milatuzumab-CL2A-SN-38 (antibody) returned a Kd in test [1] of 0.59 nM.

For “Veltuzumab (hA20, humanized anti-CD20 IgG1, unconjugated) (antibody)”, the Median fluorescence with CD20 (human) [33] worked out at 422; with CD20 (human) [34], 21.5; in the test with CD20 (human) [35], 97.4; with CD20 (human) [36], 12.3; with CD20 (human) [37], 605; in the test with CD20 (human) [38], 6.9. The Median fluorescence is 3.7 in the test with CD20 (human) [39], 620 with CD20 (human) [40] and 815 with CD20 (human) [41].

Regarding hRS7-CL2A-SN-38 (antibody), in test [42], the Kd worked out at 1.2 nM.

For the molecule “Epratuzumab (hLL2, humanized anti-CD22 IgG1, unconjugated) (antibody)”, the Median fluorescence is 45.9 in the test with CD22 (human) [43]; 10.3 with CD22 (human) [44]; 7.7 with CD22 (human) [45]; 22.9 with CD22 (human) [46]; 11.2 with CD22 (human) [47]; 16 in the test with CD22 (human) [48]. The figures for the Median fluorescence in the test with CD22 (human) [49], with CD22 (human) [50] and with CD22 (human) [51] were 23.3, 40.8 and 145, respectively.

B1: hRS7-CL2-SN-38 (antibody, INN chains, looked up, V domains shown, part only)
VH: QVQLQQSGSELKKPGASVKVSCKASGYTFTNYGMNWVKQAPGQGLKWMGWINTYTGEPTYTDDFKGRFAFSLDTSVSTAYLQISSLKADDTAVYFCARGGFGSSYWYFDVWGQGSLVTVSS
VL: DIQLTQSPSSLSASVGDRVSITCKASQDVSIAVAWYQQKPGKAPKLLIYSASYRYTGVPDRFSGSGSGTDFTLTISSLQPEDFAVYYCQQHYITPLTFGAGTKVEIK
modifications: SN-38 via CL2 linker
In test [42], B1 displayed a Kd of 1.2 nM.

B2: hRS7 IgG (humanized RS7 anti-Trop-2 antibody, unconjugated) (antibody, V domains shown)
VH: B1 VH
VL: DIQLTQSPSSLSASVGDRVSITCKASQDVSIAVAWYQQKPGKAPKLLIYSASYRYTGVPDRFSGSGSGTDFTLTISSLQPEDFAVYYCQQHYITPLTFGAGTKVEIKR
B2: the “ADCC, specific lysis of BxPC-3 target cells by PBMCs (effector to target ratio 100:1; antibody at 33.3 nM)” value in [52] was 8.5%.
